Measured values as given in publication PMC12561398, “The N-Terminal Extension of the Mycobacterium avium Rel Protein Is a Dual Regulator of the Bifunctional Enzyme and Represents a Novel Target” (Antibiotics, 2025).

Assays:
MavRel ACT domain = biological target: T1, MavRel ACT domain (Mycobacterium avium, UniProt A0ACG7XC01); conditions: protein (dimer):valine 1:10 and 1:50; 50 mM Tris pH 8.5, 100 mM NaCl, 5% glycerol; 298 K; cleft at dimer interface
T1 construct: gene relA

[1] = test system: MavRel TGS Y473W (Mycobacterium avium subsp. avium ATCC 25291); experiment: tryptophan fluorescence quenching; conditions: 50 mM Tris-HCl pH 8.5, 350 mM NaCl, 1 mM DTT; excitation 295 nm, emission 355 nm; temperature not stated
[2] = test system: MavRel Y473W (full length) (Mycobacterium avium subsp. avium ATCC 25291); experiment: tryptophan fluorescence quenching; conditions: 50 mM Tris-HCl pH 8.5, 350 mM NaCl, 1 mM DTT; excitation 295 nm, emission 355 nm; temperature not stated
SEC = biological target: the molecule itself; experiment: SEC

CC(C)[C@H](N)C(=O)O [valine]
chemical shift perturbation (MavRel ACT domain): indicates MavRel ACT:valine binding as well as a change in conformation

deacylated E. coli tRNA
Kd [1]: 650 nM
Kd [2]: 1670 nM

B1: MavRel_(51–444) (domain or fragment)
chain: MTAQRSTLNPVLEPLVAMHREIYPKANVQLLQRAFEVADQRHASQLRHSGDPYITHPLAVATILAELGMDTTTLVAALLHDTVEDTGYTLAQLSEEFGEEVGHLVDGVTKLDRVVLGSAAEGETIRKMITAMARDPRVLVIKVADRLHNMRTMRFLPPEKQARKARETLEVIAPLAHRLGMASVKWELEDLSFAILHPKKYDEIVRLVAGRAPSRDTYLAKVRAEIINTLNASKIKATVEGRPKHYWSIYQKMIVKGRDFDDIHDLVGIRILCDEIRDCYAAVGVVHSLWQPMAGRFKDYIAQPRYGVYQSLHTTVVGPEGKPLEVQIRTRDMHRTAEYGIAAHWRYKEAKGRNGVPHPHAAAEIDDMAWMRQLLDWQREAADPGEFLESLRYD
notes: source: E. coli C41(DE3), purified (Ni-NTA, SEC)
stoichiometry N (SEC): 2

B2: MavRel_(1–444) (domain or fragment, Mycobacterium avium subsp. avium, UniProt A0ACG7XC01 1-444, looked up)
chain: MAEENSAAQALDAPAESPPNPVIETPEPPTESLKTSSSASRRVRARLARRMTAQRSTLNPVLEPLVAMHREIYPKANVQLLQRAFEVADQRHASQLRHSGDPYITHPLAVATILAELGMDTTTLVAALLHDTVEDTGYTLAQLSEEFGEEVGHLVDGVTKLDRVVLGSAAEGETIRKMITAMARDPRVLVIKVADRLHNMRTMRFLPPEKQARKARETLEVIAPLAHRLGMASVKWELEDLSFAILHPKKYDEIVRLVAGRAPSRDTYLAKVRAEIINTLNASKIKATVEGRPKHYWSIYQKMIVKGRDFDDIHDLVGIRILCDEIRDCYAAVGVVHSLWQPMAGRFKDYIAQPRYGVYQSLHTTVVGPEGKPLEVQIRTRDMHRTAEYGIAAHWRYKEAKGRNGVPHPHAAAEIDDMAWMRQLLDWQREAADPGEFLESLRYD
notes: The N-terminal His6 tag is stated for the parent relA construct in pET29b; also called MavRel NTD; N-terminal domain (NTD) of MavRel; source: E. coli C41(DE3), purified (Ni-NTA, SEC)
stoichiometry N (SEC): 2
